Data taken from patent publication US6849601B1 (priority 1998, dated 2005).
Positions of bridges follow the written chain, without caps; N, C: chain ends. Residues, ends and D or L forms follow the SMILES beside them.

T1: rat α1A-adrenoceptor (rat), P43140
T1 chain: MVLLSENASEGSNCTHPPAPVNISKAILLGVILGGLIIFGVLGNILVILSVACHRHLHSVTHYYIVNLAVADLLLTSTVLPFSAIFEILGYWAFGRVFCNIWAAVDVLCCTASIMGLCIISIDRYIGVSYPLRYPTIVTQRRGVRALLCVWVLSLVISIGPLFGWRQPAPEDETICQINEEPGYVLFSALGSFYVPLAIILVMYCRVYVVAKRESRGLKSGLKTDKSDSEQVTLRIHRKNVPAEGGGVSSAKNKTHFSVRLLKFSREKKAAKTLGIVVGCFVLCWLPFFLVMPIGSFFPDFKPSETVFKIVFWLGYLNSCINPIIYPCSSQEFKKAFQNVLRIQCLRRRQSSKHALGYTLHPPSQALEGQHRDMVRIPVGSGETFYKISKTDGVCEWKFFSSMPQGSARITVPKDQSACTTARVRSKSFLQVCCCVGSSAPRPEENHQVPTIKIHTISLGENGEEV

T2: rat α1D-adrenoceptor (rat), P23944
T2 chain: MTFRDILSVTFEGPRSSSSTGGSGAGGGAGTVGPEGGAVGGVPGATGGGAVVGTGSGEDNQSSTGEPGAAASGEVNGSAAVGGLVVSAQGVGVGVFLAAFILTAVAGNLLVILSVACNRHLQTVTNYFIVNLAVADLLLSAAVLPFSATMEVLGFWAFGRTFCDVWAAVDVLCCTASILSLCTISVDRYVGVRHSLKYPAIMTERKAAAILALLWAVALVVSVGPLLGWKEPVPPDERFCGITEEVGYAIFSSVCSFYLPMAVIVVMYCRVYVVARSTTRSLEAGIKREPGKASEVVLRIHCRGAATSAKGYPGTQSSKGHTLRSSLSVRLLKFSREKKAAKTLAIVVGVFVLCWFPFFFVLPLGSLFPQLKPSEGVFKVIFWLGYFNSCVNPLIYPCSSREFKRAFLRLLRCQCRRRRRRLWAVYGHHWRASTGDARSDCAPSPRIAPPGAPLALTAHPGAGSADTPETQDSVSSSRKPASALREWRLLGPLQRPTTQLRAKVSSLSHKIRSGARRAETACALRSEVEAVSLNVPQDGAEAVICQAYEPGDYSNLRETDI

T3: hamster α1B-adrenoceptor (hamster), P18841
T3 chain: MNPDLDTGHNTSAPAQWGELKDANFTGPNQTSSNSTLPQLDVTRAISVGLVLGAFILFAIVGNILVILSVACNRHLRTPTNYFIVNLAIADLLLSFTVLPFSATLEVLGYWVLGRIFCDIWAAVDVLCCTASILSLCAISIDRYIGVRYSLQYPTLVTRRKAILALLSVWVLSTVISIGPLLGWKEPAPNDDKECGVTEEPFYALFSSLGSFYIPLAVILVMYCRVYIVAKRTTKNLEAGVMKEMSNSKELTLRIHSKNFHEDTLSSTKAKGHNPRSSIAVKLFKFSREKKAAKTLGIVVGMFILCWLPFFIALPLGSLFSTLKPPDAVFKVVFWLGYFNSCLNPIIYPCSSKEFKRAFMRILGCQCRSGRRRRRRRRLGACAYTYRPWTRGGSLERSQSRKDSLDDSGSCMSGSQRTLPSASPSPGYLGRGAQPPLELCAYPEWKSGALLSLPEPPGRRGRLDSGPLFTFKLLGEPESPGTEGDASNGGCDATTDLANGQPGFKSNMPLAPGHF


Columns and labels:
[1] = test system: bisected rat prostatic vas deferens
[2] = molecular target: T1, rat α1A-adrenoceptor (rat), P43140
[3] = molecular target: T2, rat α1D-adrenoceptor (rat), P23944
[4] = molecular target: T3, hamster α1B-adrenoceptor (hamster), …
[5] = molecular target: T3, hamster α1B-adrenoceptor (hamster), …

Molecule | IC50 [1] [nM] | -log Ki [2] | -log Ki [3] | -log Ki [4] | Ki [5] [nM]
CC[C@H](C)[C@@H]1NC(=O)[C@H](CC(C)C)NC(=O)[C@@H]2CSSC[C@@H](C(N)=O)NC(=O)[C@H](Cc3ccccc3)NC(=O)[C@H](CCCCN)NC(=O)[C@H](CCCCN)NC(=O)[C@H](Cc3c[nH]cn3)NC(=O)[C@H](CC(N)=O)NC(=O)[C@H](CCCNC(=N)N)NC(=O)[C@H](CCCNC(=N)N)NC(=O)[C@H](CSSC[C@H](NC(=O)[C@H](CCCNC(=N)N)NC(=O)[C@H](Cc3c[nH]c4ccccc34)NC(=O)[C@H](CC(N)=O)NC(=O)[C@@H](N)Cc3ccccc3)C(=O)N2)NC(=O)[C@H](C)NC(=O)[C@@H]2CCCN2C1=O [ρ-TIA, FNWRCCLIPACRRNHKKFC] (H-FNWRCCLIPACRRNHKKFC-NH2; disulfide 5-11, 6-19) | ~300 | – | – | – | –
FNWRCCLIPACRRNHKKFC (modifications not checked) [ρ-TIA] | – | 7.29 | 7.09 | 7.7 | 20
